The source of these data is the RNAGym collection of RNA variant scans (doi:10.7554/elife.90254).

To fix the notation:
B1: OR4K15 (parent)
chain: GUUAACGGUCAUAGGCCAUGGAAACUAGGAGCACCAUUUCGCUGCCAGUGAAGAAAUGAACAAAGAAAAUCUGGGCCAGGCAGGCAUCAAAAGAAAUAGUCUUGCGCUCAACCAGAAAGUCUGUAAUCAUUUUAAGGGUA

In the data set the parent is B1. The experiment in a line: self-cleavage, relative activity (ratio to wild type); higher = more cleavage; in vitro, sequencing; the parent is a self-cleaving ribozyme.
As to GUUAACGGUCAUAGGCCAUGGAAACUAGCAGCACCAUUUCGCUGCCAGUGAAGAAAUGAACAAAGAAAAUCUGGGCCAGGCAGGCAUCAAAAGAAAUAGCCUUGCGCUCAACCAGAAAGUCUGUAAUCAUUUUAAGGGUA [G29C U100C], the self-cleavage was 2.39.
Consider GUUAACGGUCAUAGGCCAUGGAAACUAGGCGCACCAUUUCGCUGCCAGUGAAGAAAUGAACAAAGAAAAUCUGGGCCAGGCAGGCAUCAAAAGAAAUAGUCUUGCGCUCAACCAGAAAGUCUGUAAUCACUUUAAGGGUA [A30C U130C], for which the self-cleavage came out at 1.21.
Consider GUUAACGGUCAUAGGCCAUGGAAACUAGGCGCACCAUUUCGCUGCCAGUGAAGAAAUGAACAAAGAAAAUCUGGGCCAGGCAGGCAUCAAAAGAAAUAGUCUUGCGCUCAACCAGAAAGUCUGUAAUCAUUCUAAGGGUA [A30C U132C], for which the self-cleavage was 1.12.
On to GUUAACGGUCAUAGGCCAUGGAAACUAGAAGCACCAUUUCGCUGCCAGUGAAGAAAUGAACAAAGAAAAUCUGGGCCAGGCAGGCAUCAAAAGAAAUAGUCUUGCGCUCAACCAGAAAGUCUGUAAUCACUUUAAGGGUA [G29A U130C], for which the self-cleavage was 1.7.
For the variant GUUAACGGUCAUAGGCCAUGGAAACUAGAAGCACCAUUUCGCUGCCAGUGAAGAAAUGAACAAAGAAAAUCUGGGCCAGGCAGGCAUCAAAAGAAAUAGUCUUGCGCUCAACCAGAAAGUCUGUAAUCAUUUUGAGGGUA [G29A A134G], the self-cleavage turned out to be 0.51.
GUUAACGGUCAUAGGCCAUGGAAACUAGGGGCACCAUUUCGCUGCCAGUGAAGUAAUGAACAAAGAAAAUCUGGGCCAGGCAGGCAUCAAAAGAAAUAGUCUUGCGCUCAACCAGAAAGUCUGUAAUCAUUUUAAGGGUA [A30G A54U]: the self-cleavage amounted to 1.33.
As to GUUAACGGUCAUAGGCCAUGGAAACUAGGCGCACCAUUUCGCUGCCAGUGAAGAGAUGAACAAAGAAAAUCUGGGCCAGGCAGGCAUCAAAAGAAAUAGUCUUGCGCUCAACCAGAAAGUCUGUAAUCAUUUUAAGGGUA [A30C A55G], the self-cleavage is 1.44.
GUUAACGGUCAUAGGCCAUGGAAACUAGGCGCACCAUUUCGCUGCCAGUGAAGAAAUGAACAAAGAAAAUCUGGCCCAGGCAGGCAUCAAAAGAAAUAGUCUUGCGCUCAACCAGAAAGUCUGUAAUCAUUUUAAGGGUA [A30C G75C]: the self-cleavage came out at 0.12.
For GUUAACGGUCAUAGGCCAUGGAAACUAGAAGCAUCAUUUCGCUGCCAGUGAAGAAAUGAACAAAGAAAAUCUGGGCCAGGCAGGCAUCAAAAGAAAUAGUCUUGCGCUCAACCAGAAAGUCUGUAAUCAUUUUAAGGGUA [G29A C34U], the self-cleavage is 1.67.
For GUUAACGGUCAUAGGCCAUGGAAACUAGGGGCACCGUUUCGCUGCCAGUGAAGAAAUGAACAAAGAAAAUCUGGGCCAGGCAGGCAUCAAAAGAAAUAGUCUUGCGCUCAACCAGAAAGUCUGUAAUCAUUUUAAGGGUA [A30G A36G], the self-cleavage was determined as 1.44.
On to GUUAACGGUCAUAGGCCAUGGAAACUAGGGGCACCUUUUCGCUGCCAGUGAAGAAAUGAACAAAGAAAAUCUGGGCCAGGCAGGCAUCAAAAGAAAUAGUCUUGCGCUCAACCAGAAAGUCUGUAAUCAUUUUAAGGGUA [A30G A36U], for which the self-cleavage worked out at 1.32.
As for GUUAACGGUCAUAGGCCAUGGAAACUAGGGGCACCAUUUCGCUGCCAGUGAAGAAAUGAACAGAGAAAAUCUGGGCCAGGCAGGCAUCAAAAGAAAUAGUCUUGCGCUCAACCAGAAAGUCUGUAAUCAUUUUAAGGGUA [A30G A63G], the self-cleavage turned out to be 1.57.
As for GUUAACGGUCAUAGGCCAUGGAAACUAGGGGCACCAUUUCGCUGCCAGUGUAGAAAUGAACAAAGAAAAUCUGGGCCAGGCAGGCAUCAAAAGAAAUAGUCUUGCGCUCAACCAGAAAGUCUGUAAUCAUUUUAAGGGUA [A30G A51U], the self-cleavage is 1.46.
GUUAACGGUCAUAGGCCAUGGAAACUAGAAGCACCAUUUCGCUGCCAGUGAAGAAAUGAACAAAGAAAAUCUGGGCCAGGCAGGCAUCAAAAGAAAUAGUCUUGCGCUCAACCAGAAAGUCCGUAAUCAUUUUAAGGGUA [G29A U122C]: the self-cleavage came to 1.08.
In the case of GUUAACGGUCAUAGGCCAUGGAAACUAGGCGCACCAUUUCGCUGCCAGUGAAGAAAUGAACAAUGAAAAUCUGGGCCAGGCAGGCAUCAAAAGAAAUAGUCUUGCGCUCAACCAGAAAGUCUGUAAUCAUUUUAAGGGUA [A30C A64U], the self-cleavage is 0.92.
Take GUUAACGGUCAUAGGCCAUGGAAACUAGUAGCACCAUUUCGCUGCCAGUGAAGAAAUGAACAAAGAAAAUCUGGGCCAGGCAGGCAUUAAAAGAAAUAGUCUUGCGCUCAACCAGAAAGUCUGUAAUCAUUUUAAGGGUA [G29U C88U]: the self-cleavage came to 2.55.
In the case of GUUAACGGUCAUAGGCCAUGGAAACUAGGGGCACCAUUUCGCUGCCAGUGAAGAAAUGAGCAAAGAAAAUCUGGGCCAGGCAGGCAUCAAAAGAAAUAGUCUUGCGCUCAACCAGAAAGUCUGUAAUCAUUUUAAGGGUA [A30G A60G] it was 0.96.
GUUAACGGUCAUAGGCCAUGGAAACUAGAAGCACCAUUUCGCUGCCAGUGAAGAAAUGAACAAAGAAAAUCUGGGCCAGGCAGGCAUCAAAAGAAAUAGUCUUGCGCCCAACCAGAAAGUCUGUAAUCAUUUUAAGGGUA [G29A U108C]: the self-cleavage came out at 0.03.
For the variant GUUAACGGUCAUAGGCCAUGGAAACUAGGGGCACCAUUUCGCUGCCAGUGAAGAUAUGAACAAAGAAAAUCUGGGCCAGGCAGGCAUCAAAAGAAAUAGUCUUGCGCUCAACCAGAAAGUCUGUAAUCAUUUUAAGGGUA [A30G A55U], the self-cleavage was 1.44.
For the variant GUUAACGGUCAUAGGCCAUGGAAACUAGUAGCACCAUUUCGCUGCCAGUGAAGAAAUGAACGAAGAAAAUCUGGGCCAGGCAGGCAUCAAAAGAAAUAGUCUUGCGCUCAACCAGAAAGUCUGUAAUCAUUUUAAGGGUA [G29U A62G], the self-cleavage was 1.65.
Under GUUAACGGUCAUAGGCCAUGGAAACUAGGCGCACCAUUUCGCUGCCAGUGAAGAAAUGAACAAAGAAAAUCUGGGCCAGGCAGGCAUCGAAAGAAAUAGUCUUGCGCUCAACCAGAAAGUCUGUAAUCAUUUUAAGGGUA [A30C A89G] stands 1.34; under GUUAACGGUCAUAGGCCAUGGAAACUAGCAGCACCACUUCGCUGCCAGUGAAGAAAUGAACAAAGAAAAUCUGGGCCAGGCAGGCAUCAAAAGAAAUAGUCUUGCGCUCAACCAGAAAGUCUGUAAUCAUUUUAAGGGUA [G29C U37C], 1.25; under GUUAACGGUCAUAGGCCAUGGAAACUAGUAGCGCCAUUUCGCUGCCAGUGAAGAAAUGAACAAAGAAAAUCUGGGCCAGGCAGGCAUCAAAAGAAAUAGUCUUGCGCUCAACCAGAAAGUCUGUAAUCAUUUUAAGGGUA [G29U A33G], 1.58.
Take GUUAACGGUCAUAGGCCAUGGAAACUAGAAGCACCAUUUAGCUGCCAGUGAAGAAAUGAACAAAGAAAAUCUGGGCCAGGCAGGCAUCAAAAGAAAUAGUCUUGCGCUCAACCAGAAAGUCUGUAAUCAUUUUAAGGGUA [G29A C40A]: the self-cleavage was 1.82.
For the variant GUUAACGGUCAUAGGCCAUGGAAACUAGGGGCACCAUUUCGCUGCCGGUGAAGAAAUGAACAAAGAAAAUCUGGGCCAGGCAGGCAUCAAAAGAAAUAGUCUUGCGCUCAACCAGAAAGUCUGUAAUCAUUUUAAGGGUA [A30G A47G], the self-cleavage was 0.71.
On to GUUAACGGUCAUAGGCCAUGGAAACUAGGGGCACCAUUUCGCUGCCCGUGAAGAAAUGAACAAAGAAAAUCUGGGCCAGGCAGGCAUCAAAAGAAAUAGUCUUGCGCUCAACCAGAAAGUCUGUAAUCAUUUUAAGGGUA [A30G A47C], for which the self-cleavage was determined as 1.21.
In the case of GUUAACGGUCAUAGGCCAUGGAAACUAGGGGCUCCAUUUCGCUGCCAGUGAAGAAAUGAACAAAGAAAAUCUGGGCCAGGCAGGCAUCAAAAGAAAUAGUCUUGCGCUCAACCAGAAAGUCUGUAAUCAUUUUAAGGGUA [A30G A33U] it was 1.18; in that of GUUAACGGUCAUAGGCCAUGGAAACUAGGGGCACCAUUUCGCUGCCAGUGAAGAAAUGAACGAAGAAAAUCUGGGCCAGGCAGGCAUCAAAAGAAAUAGUCUUGCGCUCAACCAGAAAGUCUGUAAUCAUUUUAAGGGUA [A30G A62G], 1.07.
For the variant GUUAACGGUCAUAGGCCAUGGAAACUAGGGGCACCAUUUCGCUGCCAGUGAAGAAAUGAACUAAGAAAAUCUGGGCCAGGCAGGCAUCAAAAGAAAUAGUCUUGCGCUCAACCAGAAAGUCUGUAAUCAUUUUAAGGGUA [A30G A62U], the self-cleavage was determined as 1.29.
On to GUUAACGGUCAUAGGCCAUGGAAACUAGGGGCACCAUUUCGCUGCCAGUGAAGAACUGAACAAAGAAAAUCUGGGCCAGGCAGGCAUCAAAAGAAAUAGUCUUGCGCUCAACCAGAAAGUCUGUAAUCAUUUUAAGGGUA [A30G A56C], for which the self-cleavage amounted to 0.43.
On to GUUAACGGUCAUAGGCCAUGGAAACUAGUAGCACCAUUUCGCUGCCAGUGAAGAAAUGAACAAAGAAAAUCUGGGCCAGGCAGGCAUCAAAAGAAAUAGUCUUGCGCUCAGCCAGAAAGUCUGUAAUCAUUUUAAGGGUA [G29U A111G], for which the self-cleavage stood at 0.05.
Consider GUUAACGGUCAUAGGCCAUGGAAACUAGGGGCACCAUUUCGCUGCCAGUGAAGAAAUGGACAAAGAAAAUCUGGGCCAGGCAGGCAUCAAAAGAAAUAGUCUUGCGCUCAACCAGAAAGUCUGUAAUCAUUUUAAGGGUA [A30G A59G], for which the self-cleavage was found to be 1.5.
For GUUAACGGUCAUAGGCCAUGGAAACUAGCAGCACCAUUUCGCUGCCAGUGAAGAAAUGAACAAAGAAAAUCUGGGCCAGGCAGGCAUCAAAAGAAAUAGUCUUGCGCUCAACCAGAAAGUCUGUAAUCAUUUUAAGGGUA [G29C], the self-cleavage was 1.78.
In the case of GUUAACGGUCAUAGGCCAUGGAAACUAGUAGCACCAUUUCGCUGCCAGUGAAGAAAUGAACAAAGAAAAUCUGGGCCAGGCAGGCAUCAAAAGAAAUAGUCUUGCGCUCAACCAGAAAGUCUGUAAUCAUUUUAAGGGUA [G29U], the self-cleavage is 1.83.
In the case of GUUAACGGUCAUAGGCCAUGGAAACUAGAAGCACCAUUUCGCUGCCAGUGAAGAAAUGAACAAAGAAAAUCUGGGCCAGGCAGGCAUCAAAAGAAAUAGUCUUGCGCUCAACCAGAAAGUCUGUAAUCGUUUUAAGGGUA [G29A A129G] it was 1.59; in that of GUUAACGGUCAUAGGCCAUGGAAACUAGGGGCACCAUUUCGCUGCCAGUGAUGAAAUGAACAAAGAAAAUCUGGGCCAGGCAGGCAUCAAAAGAAAUAGUCUUGCGCUCAACCAGAAAGUCUGUAAUCAUUUUAAGGGUA [A30G A52U], 1.62; in that of GUUAACGGUCAUAGGCCAUGGAAACUAGUAGCACCAUUUCGCUGCCAGUGAAGAAAUGAACAAAGAAAAUCUGGGCCUGGCAGGCAUCAAAAGAAAUAGUCUUGCGCUCAACCAGAAAGUCUGUAAUCAUUUUAAGGGUA [G29U A78U], 0.35.
Regarding GUUAACGGUCAUAGGCCAUGGAAACUAGUAGCACCAUUUCGCUGCCAGUGAAGAAAUGAACAAAGAAAAUCUGGGCCGGGCAGGCAUCAAAAGAAAUAGUCUUGCGCUCAACCAGAAAGUCUGUAAUCAUUUUAAGGGUA [G29U A78G], the self-cleavage is 0.24.
For the variant GUUAACGGUCAUAGGCCAUGGAAACUAGGCGCACCAUUUCGCUGCCAGUGAAGAAAUGAACAAAGAAAAUCUGGGCCAGGCAGGCAUCAAAAGAAAUAGUCUUGCGCUCAACCAGAAAGUCUGUAAUCAUUUUAAGGGUG [A30C A140G], the self-cleavage turned out to be 1.69.
GUUAACGGUCAUAGGCCAUGGAAACUAGUAGCACCAUUUCGCUGCCAGUGAAGAAAUGAACAAAGAAAAUCUGGGCCAGGCAGGCAUCAAAAGAAAUAGUCUUGCGCUCAACCAGAAGGUCUGUAAUCAUUUUAAGGGUA [G29U A118G]: the self-cleavage was 0.78.
As to GUUAACGGUCAUAGGCCAUGGAAACUAGGCGCACCGUUUCGCUGCCAGUGAAGAAAUGAACAAAGAAAAUCUGGGCCAGGCAGGCAUCAAAAGAAAUAGUCUUGCGCUCAACCAGAAAGUCUGUAAUCAUUUUAAGGGUA [A30C A36G], the self-cleavage stood at 2.26.
